assay: yeast display, Sf9 membrane polyspecificity reagent, FACS + sequencing; frameworks hold sequencing errors
Summary of the method: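 In a synthetic yeast display library (Saccharomyces cerevisiae BJ5465), nanobody expression was induced with galactose for 36–48 hours. FACS gates were set low and high (top ~1%) using anti-HA fluorescence for expression and streptavidin fluorescence for binding of the Sf9 membrane reagent. Each polyreactivity label is drawn from the gate of origin.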

| Sequence | polyreactivity (PSR sort gate) |
| --- | --- |
| QVHLVDSGGGLVQAGGSLRLSCAASGFTYYAMGWYRQAPGKERELVAAITRSGGSTYYADSVKGRFTISRDNAKNSVYLQMKSLKPEDTAVYYCAASGKALKYTARYGSWGQGTQVNVSS | high polyreactivity |
| QVHLVDSGGGLVQAGGSLRLSCAASGRTFQVYTMGWSRQAPGKERELVAAITWNGGRTRYADSVKGRFTISRDNAKNTVYLQMTSLKPEDTAVYYCNAGNWITARAGFNDWGQGTQVTVSS | high polyreactivity |
| QVHLVDSGGGLVQAGGSLRLSCAASGRTSIRYAMAWYRQAPGKERELVAAITYAAGSTYYADSVTGRFTISRDNAKNTVYLQMNSLKPEDTAVYYCNARVYYHYDFWGQGTQVTVSS | high polyreactivity |
| QVHLVDSGGGLVQAGGSLRLSCAASGSTSGTNAMGWYRQAPGKERELVAGISYRGGSTYYADSVKGRFTISRDNAKNTVYLQMNSLKPEDTAVYYCAARKLKYRREYWGQGTQVTVSS | high polyreactivity |
| QVHLVDSGGGLVQAGGSLRLSCSASGLIFSGYAMRWYRQAPGKERELVAAITRRGSRTYYADSVTGRFTISRDKAKNTVYLQMNSLKPEDTAVYYCAADRFQGRDDYWGQGTQVTVSS | high polyreactivity |
| QVHLVESAAGFVQAGGSLRLSGAASGFILWYYTMGWYRQAPGKERELVAVIDWSGDSTYADSVKGRFTISLDNAKNSVYLQMNSLIPVDTAVYYWNADYFVVWARLEFNYWGQGTQVTVSS | low polyreactivity |
| QVHLVESAGGLVQAGGSLRLRCDASGRTFVLYTMGWYRQAPGKERELVAAIYGSGGRTYYADSVKGRLTISRDNAKNTVYLQMNSLKPEDTAVYYCAAYCQGLPLYGYWGQGTQVTVSS | high polyreactivity |
| QVHLVESCGGLVQAGGSLRLSCAASGITFWNYAMGRYRQAPGKETELVAAISYSGGSTYYADSVKGRFTISRDNAKNTFYLQMNSLKPEDTGVYYCAATLPTNWVRYDYWGQGTQVTVSS | low polyreactivity |
| QVHLVESGGCLVQAGGSLRLSCAASGRIYRYAMGWYRQAPGKERELVAVITRRGDGTYYADSVKGRFTISRDNAKNTVYLQMNSLKPEDTAVYYCNADQSYKRPWPYDYWGQGTQVTVSS | high polyreactivity |
| QVHLVESGGGIVQAGGSLRLSCAASGSIFGKNVMGWYRHAPGKERQLVAAITSGASTYYADSVKGRFTISRDNAKNTVYLQMNSLKPEDTPVYYCAARRWRKYYSGYNYWGQGTQVTVSS | high polyreactivity |
| QVHLVESGGGLDQAGGSLRLSCAASGSISLIYAMGWYRQAPGKERELVAAITSSGGSTYYADSVKGRFTISRDNAKNTVYLQMNSLKREDTAVYYCAAERWTRRHYSGNDYWGQGTQVTVSS | low polyreactivity |
| QVHLVESGGGLDQAGGSLRLSCAASGSTDGPYARGWSRQATGKERELVATINSSGSTNYADSLKGRFTISRDNAKNTVYLQMHSLKTEDTAVYYSASLHSYYWNDYWGQGTQVTVSS | low polyreactivity |
| QVHLVESGGGLDQAGGTLRLSCAATGSIIQSYAMGWYRQAPGKESELVAAITARGTSTYYADSVKGRFTISRDNAKNTVYLQMNSLKPEETAVYYCTTDRSRSPGDVECQSDIKRDYWGQGTQVTVSS | low polyreactivity |
| QVHLVESGGGLFQAGGSLRISCAASGSIFRFNVMGWYRQAPGKERELVAAITRGDSTNYADSVKGRFTISRDNAKNTVYLQMNSLKPEVTAVYYCAAGFYYYLRDHDYWGQGTQVTVSS | low polyreactivity |
| QVHLVESGGGLFQAGGSLRLRCAASGRIFRYNTMGWYRQAPGKERELVAAINSSGGRTYYADSVKGRFTISRDNAKNTVYLQMNSLKPDDTAVYYCAAVIYVLSGPGYDYWGQGTQVTVSE | high polyreactivity |
| QVHLVESGGGLFQAGGSLSISSASSGRTFYWYPMGWYRQAPGKERELVAAITGMGTRTYYADSVKGRFTISRDNAKNTDYLQMNSLKPEDTAVYYCNTRYYGGFDSWGQGTQVTVSS | high polyreactivity |
| QVHLVESGGGLLLAGGSLRLTCAASGSTFYSYDKGWYRQAPGKERELVAAISWNGGSTYYEDSVKGRFTISRDNAKNTVYLPMNSLKPEDTAVYYCAALRYVHGYDYWGQGTQVSVSS | high polyreactivity |
| QVHLVESGGGLLQAGGILSLSCAASGITIIVYVMGWYRQAPGKERELVATITYDDSTYADSVKGRFTISRDNAKNTVYFQMNSLKPEDTAVYYDYWGQGTQVTVSS | low polyreactivity |
| QVHLVESGGGLLQAGGSLPLSCAASGSIFYSYAMGWYRQAPGKVRELVAVISWSGGSTYYADSVKGRFTISRDNAKNTVYLQMNSLKPEDTAVYYCAADQGWEFDYWGQCTQVTVSS | low polyreactivity |
| QVHLVESGGGLLQAGGSLRLSCAASGSTFYSYAMGWYRQAPGKERELVAAITYSDGDTYYADSVKGRFTISRDNAKNTVYLQMNSLKPEDTAVYYCAAEYQGQPGTGNLEYWGQGTQVTVSS | low polyreactivity |
| QVHLVESGGGLLQAGGSLRLSSAASGSTFPFNAMGWYRPAPGKERELVAAIDDNGGTTYYADSVKGRFTISRDNAKNTFYLQMISLKPEDPAVYYCAAEVDTVRDCVQGMDYCGQGTQVTVSS | low polyreactivity |
| QVHLVESGGGLVEAGGSLRLSCADSGNIFAWYAMGWYRQAPGKERELVADISSLGGSTYYADSVKGRFTISRDNATNTVYLQMNSLKPEDTEVYYCAAVWYWTQDYDYWGQGTQVTVSS | low polyreactivity |

| Sequence | polyreactivity (PSR sort gate) |
| --- | --- |
| QVHLVESGGGLVHAGGSLRLSSAASGSIFGANTMGWYRQAPGKERELVAGITSGARTYYADSVKGRFTISRDNAKNTVYLQMNSLKPEDTAVYYCAAKYAWRRYGFWGQGTQVTVSS | high polyreactivity |
| QVHLVESGGGLVHAGGSLRLTCAASGITSLRYAMGWYRQAPGKEREFVAAIRTIGGSTYYADSVKGRFTISRDNAKNTVYLEMNSLKPEDTPVYYCAALYFLYRSGSSHLDSWGQGTQVTVSS | high polyreactivity |
| QVHLVESGGGLVQAAGILRLSSAPSGSIFPYYAMGWYRQAPGKEREFVAAINYAGGSTYYADSVKGRFTISRDNAKNTVYLQMNSLKPEDTAVYYCNARTFGPNGKHRYGYWGQGTQVTVSS | high polyreactivity |
| QVHLVESGGGLVQAGCSLRLSCAASGFTYYYYAIGWYRQAPGTEMELVAAISSGGSTNYADSVKGRFTISRDNANNTVYLQMNSLKPEDTAVYYCAATQPYWWAYRYDYWGQGTKVTVSS | low polyreactivity |
| QVHLVESGGGLVQAGGCLRLSCAASGSIVGYNTMGWYRQAPGKERALVAAISSSGTSTNYPDSVKGRFTISRDNAKNTVYLQMNSLKPDDTAVFYCNTVLRVWSRSGYDYWGQGSQVTVSS | high polyreactivity |
| QVHLVESGGGLVQAGGILRLSCAASGSIFLYYAMGWYRQAPGKERELVAAITGGGGTNYADSVKGRFTISRDNAKNTFYLQMNSLKPEDTAVYYCGADPSGQFPYSYYNYDYDYWGQGTQVTVSS | low polyreactivity |
| QVHLVESGGGLVQAGGRLRLSCAASGFTYYRYTMGWYRQAPGKERELVAAISWNGGRTYYADSVKGRFTISRDNAKNTVYLQMNSLKPEDTAVYYCAAVQHYTNRYPAVDYWGQGTQVTVSS | high polyreactivity |
| QVHLVESGGGLVQAGGRLRLSCAASGNTFYQYAMGWYRQAPGKERELVAAISSSGGSTYYADTVKGRFTISRDNAKNTVYLQMNSLKPEDTGVYYCATDKWYGYYYWGQGTQVTVSS | low polyreactivity |
| QVHLVESGGGLVQAGGRLRLSCAASGRIFYTYAMGWYRQAPGKERELVAAITSGGSTYYADSVKGRFTISRDNAKNTVYLQMNSLKPEDTAVYYCNKVSYYRNEYWGQGSQVTVSS | high polyreactivity |
| QVHLVESGGGLVQAGGSHRLSCAASGFTIHRYAMGWYRQAPGKERELVAGITRRSGSTFYADSVKGRFTISRDNAKNTVFLQMNSLKPEDTAVYYCAATVPGLHWIYDYWGQGTQVTVSS | high polyreactivity |
| QVHLVESGGGLVQAGGSLGLSCAASGNIFSSNAMGWYTQAPGKERELVDAITRSGGSTYYADSVKGRFTISRDNAKKTVYLQLNSQKPEDTAVYYGAARHYPRNSWGYDYWGQGTQVTVSS | high polyreactivity |
| QVHLVESGGGLVQAGGSLLLSCAASGSTQLGNAMGWYRQAPGKERELVAAISTSGDSTNYADSVKGRFTISRDNAKNTVYLEMNSLKPEDTAVYYCNAGGYLNSDVDRVGYWGQGTQVTVSS | low polyreactivity |
| QVHLVESGGGLVQAGGSLRISCAASGSIFKGYAMGWYRQAPGKERELVAAITIDGSTYYADSVKGRFTISRDNAKNTVYLQMNSLKPEDTAVYYCDAVYLWYGSWPLHFAAYDYWGQGTQVTVSS | low polyreactivity |
| QVHLVESGGGLVQAGGSLRISCAASGSNFSYYARGWYRQAPGKESELVAAISQSGGTTYYADSVKGRFTISRDHAKNTVYLQMNCLKPEDTAVYYCAARAPSSFDTQYYYWGLGTQVTVSS | low polyreactivity |
| QVHLVESGGGLVQAGGSLRISCAASGSSFSIYAMGSYRQAPGKERELVAAITCTVGSTYYADSVKGRFTISRDIAKYTVYLPLNSLKPEDTAVYYFAARQVNYDYDFWGQGTQVTVSS | low polyreactivity |
| QVHLVESGGGLVQAGGSLRISCAATGYTFLYNAMGWYRQAPGKEREFVAGIRRSVGSTYYADSVKGRFTISRDNAKNTVYLQMNSMTREDTAVYYCALVPALYRYRVGTYAYDYWGQGTQVTVSS | low polyreactivity |
| QVHLVESGGGLVQAGGSLRLCCAASGITFQVYAKGCYRPAPGKERELVAAINWSGTRTYYADSVKGRFTISRDNAKNTVYLQMNSLKPEDTAVYYCAAAERSLGYYYWGQGTQVTVTS | high polyreactivity |
| QVHLVESGGGLVQAGGSLRLICAASGFTFDFYAMGWYRQAPGKERELVAAISKNDGTTYYADSVKGRFTISRDNAKNTVYLQMYSLKPEDTAVYYCAAESGYPVYTYVSSGDYWGQGTQVTVSS | low polyreactivity |
| QVHLVESGGGLVQAGGSLRLICAASGRIFIVYAMGWYRQAPGKERELVAVITGGGSTNYADSVKGRFTISRDNAKNSVYLQMNSLKPEDTAVYYCATEGYGHGGETVGGVYSDLGYWGQGTQVTVSS | low polyreactivity |
| QVHLVESGGGLVQAGGSLRLICAASGSIYTPNAMGWYRQAPGKETELVAAISSSSDRTYYADSVTGRFTISRDNAKNTFYLQMNSLKPEDTEVYYCNADLRGHGRGTDQYIFDYWGQGTQVTVSS | high polyreactivity |
| QVHLVESGGGLVQAGGSLRLRCAASGGTSRSYAKGWYRPAPGKERELVAAISWRGGRTYYADSVKGRFTISRDNAKNTVYFQMNRLKPEDTAVYDCAARLPGYYGIGDYWGLGTQVTVSS | high polyreactivity |
